From article PMC11931385, “Structural and functional analysis of cancer-associated missense variants in the retinoblastoma protein pocket domain” (The Journal of Biological Chemistry, 2025)
Where a chain is given by its changes, count along the chain named. Names and notes keep the numbering of the source. No end group written: not given here. TMR = tetramethyl rhodamine dye

T1: Rb^P E440K (human, UniProt P06400 380-788, E440K)
T1 construct: also called variant 1
T1 sequence (looked up): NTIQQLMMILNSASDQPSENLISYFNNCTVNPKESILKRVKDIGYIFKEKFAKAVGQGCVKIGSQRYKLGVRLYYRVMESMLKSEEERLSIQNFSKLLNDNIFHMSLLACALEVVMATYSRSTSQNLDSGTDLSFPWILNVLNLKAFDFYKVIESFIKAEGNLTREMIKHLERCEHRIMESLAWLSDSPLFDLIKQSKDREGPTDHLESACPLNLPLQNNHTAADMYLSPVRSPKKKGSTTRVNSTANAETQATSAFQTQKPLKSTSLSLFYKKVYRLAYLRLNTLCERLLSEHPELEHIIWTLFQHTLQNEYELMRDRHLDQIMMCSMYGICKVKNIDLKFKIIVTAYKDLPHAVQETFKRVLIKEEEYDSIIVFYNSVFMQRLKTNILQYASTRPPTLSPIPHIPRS

T2: Rb^P K548N (human, UniProt P06400 380-788, K548N)
T2 construct: also called variant 26
T2 sequence (looked up): T1 sequence (looked up) with K61E, K169N

T3: Rb^P S612P (human, UniProt P06400 380-788, S612P)
T3 construct: also called variant 39
T3 sequence (looked up): T1 sequence (looked up) with K61E, S233P

T4: Rb^P R741C (human, UniProt P06400 380-788, R741C)
T4 construct: also called variant 68
T4 sequence (looked up): T1 sequence (looked up) with K61E, R362C

T5: Rb^P R763T (human, UniProt P06400 380-788, R763T)
T5 construct: also called variant 75
T5 sequence (looked up): T1 sequence (looked up) with K61E, R384T

B1: TMR-E2F1^TD, peptide of the E2F1 transactivation domain (peptide)
peptide: {TMR}-GEGIRDLFDCDFGDLTPLD
notes: also called E2F^TD; source: synthetic peptide, bought: GenScript
B2: TMR-E7^LxCxE, LxCxE peptide of the E7 oncoprotein from HPV (peptide)
peptide: DLYCYEQLN
modifications: also: TMR label, position not given here
notes: source: synthetic peptide, bought: GenScript

Assays:
Assay in all cases: fluorescence polarisation; 37 °C, after the 25 °C reading ramped over 7 min to 37 °C and 2 min incubation; unlabeled Rb^P against 1.5 nM TMR-E2F1^TD or 7.5 nM TMR-E7^LxCxE; 25 mM Tris pH 8.0, 200 mM NaCl, 1 mM DTT, 0.1% Tween-20; apparent Kd
Conditions in all cases: both partners purified
Rb^P E440K = target: T1, Rb^P E440K
Rb^P K548N = target: T2, Rb^P K548N
Rb^P S612P = target: T3, Rb^P S612P
Rb^P R741C = target: T4, Rb^P R741C
Rb^P R763T = target: T5, Rb^P R763T

| Binder | Kd (Rb^P E440K) | Kd (Rb^P K548N) | Kd (Rb^P S612P) | Kd (Rb^P R741C) | Kd (Rb^P R763T) |
| --- | --- | --- | --- | --- | --- |
| B1 | 27 nM | 178 nM | 49 nM | 64 nM | 59 nM |
| B2 | 13 nM | 15 nM | 17 nM | 23 nM | 35 nM |
